B1: Complement factor H (Homo sapiens), P08603 (parent)
chain: MRLLAKIICLMLWAICVAEDCNELPPRRNTEILTGSWSDQTYPEGTQAIYKCRPGYRSLGNVIMVCRKGEWVALNPLRKCQKRPCGHPGDTPFGTFTLTGGNVFEYGVKAVYTCNEGYQLLGEINYRECDTDGWTNDIPICEVVKCLPVTAPENGKIVSSAMEPDREYHFGQAVRFVCNSGYKIEGDEEMHCSDDGFWSKEKPKCVEISCKSPDVINGSPISQKIIYKENERFQYKCNMGYEYSERGDAVCTESGWRPLPSCEEKSCDNPYIPNGDYSPLRIKHRTGDEITYQCRNGFYPATRGNTAKCTSTGWIPAPRCTLKPCDYPDIKHGGLYHENMRRPYFPVAVGKYYSYYCDEHFETPSGSYWDHIHCTQDGWSPAVPCLRKCYFPYLENGYNQNYGRKFVQGKSIDVACHPGYALPKAQTTVTCMENGWSPTPRCIRVKTCSKSSIDIENGFISESQYTYALKEKAKYQCKLGYVTADGETSGSITCGKDGWSAQPTCIKSCDIPVFMNARTKNDFTWFKLNDTLDYECHDGYESNTGSTTGSIVCGYNGWSDLPICYERECELPKIDVHLVPDRKKDQYKVGEVLKFSCKPGFTIVGPNSVQCYHFGLSPDLPICKEQVQSCGPPPELLNGNVKEKTKEEYGHSEVVEYYCNPRFLMKGPNKIQCVDGEWTTLPVCIVEESTCGDIPELEHGWAQLSSPPYYYGDSVEFNCSESFTMIGHRSITCIHGVWTQLPQCVAIDKLKKCKSSNLIILEEHLKNKKEFDHNSNIRYRCRGKEGWIHTVCINGRWDPEVNCSMAQIQLCPPPPQIPNSHNMTTTLNYRDGEKVSVLCQENYLIQEGEEITCKDGRWQSIPLCVEKIPCSQPPQIEHGTINSSRSSQESYAHGTKLSYTCEGGFRISEENETTCYMGKWSSPPQCEGLPCKSPPEISHGVVAHMSDSYQYGEEVTYKCFEGFGIDGPAIAKCLGEKWSHPPSCIKTDCLSLPSFENAIPMGEKKDVYKAGEQVTYTCATYYKMDGASNVTCINSRWTGRPTCRDTSCVNPPTVQNAYIVSRQMSKYPSGERVRYQCRSPYEMFGDEEVMCLNGNWTEPPQCKDSTGKCGPPPPIDNGDITSFPLSVYAPASSVEYQCQNLYQLEGNKRITCRNGQWSEPPKCLHPCVISREIMENYNIALRWTAKQKLYSRTGESVEFVCKRGYRLSSRSHTLRTTCWDGKLEYPTCAKR

Variants of: B1
Settings: with albu_bovin ALB

Variant | effect of a mutation on the interaction
Y402H | decreasing interaction strength
